Test results taken from patent US20240190947A1 (BIO TECHNE, published 2024).

Molecular target: T1, SARS-CoV-2 S1 RBD His-tagged protein (SARS-CoV-2, UniProt P0DTC2 319-541)
T1 construct: domain: S1 RBD; also called rSARS-CoV-2 S1 RBD; SARS-CoV2 RBD
Assay: direct ELISA, HEK293 transfection medium

B1: 70009-2 VHH clone (VHH)
VHH: QLQLVESGGGLVQPGGSLRLSCAASTLTLNSYAIGWFRQAPGKEREAVSCTSSSGDMTYYTNSVKGRFTISRDNAKNTVYLQMSRLKPDDTAVYYCAAVLLEYGYVCSHPNEYDYWGQGTQVTVSS
**Q.** Does B1 bind?
**A.** Result: binds
